Assay results as given in the supplement of paper PMC12764529.
± gives the half width of the 95% confidence interval.

Legend:
[1] = folding stability dG unfold from trypsin proteolysis; higher = more stable
Procedure, shortened: (§1)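 K50 was inferred by Bayesian fitting of sequencing counts obtained after protease digestion of designed mini-proteins. Unfolding free energy was derived by comparison with a sequence-predicted unfolded-state K50 and a shared folded-state K50, for each protease or both combined. The mini-proteins were under 80 residues, had no cysteine, were carried in a PA-tagged cDNA display construct, and were kept only if AlphaFold2 dimer inter-PAE exceeded 15.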

[2] = folding stability dG unfold from chymotrypsin proteolysis; higher = more stable
Procedure, shortened: as §1

[3] = folding stability dG unfold (combined trypsin and chymotrypsin); higher = more stable
Procedure, shortened: as §1

| Sequence | folding stability dG unfold [1] [kcal/mol] | folding stability dG unfold [2] [kcal/mol] | folding stability dG unfold [3] [kcal/mol] |
| --- | --- | --- | --- |
| SAGGKVEVETKAYFIPETGEVVLLTTVRVETDEEPSEEERENLPEGATRTETFTFVFVFPAKPGSLLSAGGS [r8_274_TrMRF] | 2.46 ± 0.064 | 3.52 ± 0.044 | 3.19 ± 0.092 |
| SARPLVVTNPKGSTVRLDPSTGTAEFRNLVTGETVTAKVKPVPNGVLVEVEEGGVKKTFVVPEDGKIVLGSA [r9_239_TrMRF] | 0.172 ± 0.052 | -0.372 ± 0.087 | -0.0287 ± 0.066 |
| SAGGMVEEVKELAKELGFDVEIELTSVYGEKGYVPYKVTFPNGKTYYITFKGSPDEMKKKLRDLLEKSAGGS [r16_153_TrMRF] | 2.2 ± 0.058 | 2.99 ± 0.034 | 2.82 ± 0.065 |
| SAGGMTVTIPYKGSPELAERVVEAIQEAFPEVRVEEVVVEPGDPTNITITVRFDNDVPASAIAEVLSSAGGS [r16_180_JUSTAS] | 2.24 ± 0.041 | 1.55 ± 0.035 | 1.85 ± 0.071 |
| SAMYTLRTISYDPNTGVRKLELTVDPAHPDRPVPEAVTQAVADAYAAQGWSVTVTRHPDGSVVIDVPVPSAG [r14_865_JUSTAS] | 1.84 ± 0.031 | 1.86 ± 0.027 | 1.88 ± 0.022 |
| SAGGSAGGSAKIRVGGEEIELPPGKPVMFRFPENGYMIKITIKPDPKENKWKIDELKVYPMDSAGGSAGGSA [r18_222_TrROS] | 1.13 ± 0.089 | 1.83 ± 0.16 | 1.46 ± 0.19 |
| SAMEITETSLDSSTLYTFPGRRITITTTPDSYTITITLPDGTPVTLNFPPTMPLDEVKKKVIETLLASSSAG [r14_618_JUSTAS] | 0.935 ± 0.05 | 1.24 ± 0.16 | 1.19 ± 0.12 |
| SAGKPIIVKVSVINEDGEEEEIAEFPIPPDLLKGSIEVGDGFIIAPDGEGPTFTAIIGDKPVKIEIEGSAGG [r19_408_TrMRF] | 0.658 ± 0.058 | 1.52 ± 0.13 | 1.27 ± 0.13 |
| SAGGSAGGSSMTLTTLEVNPSVTIEPQPGSIVVKTPVTTLVKAGDTLVTLESESITVLPPDLLSAGGSAGGS [r12_1023_JUSTAS] | 0.486 ± 0.048 | 1.2 ± 0.036 | 1.03 ± 0.062 |
| SMTPEEEAKRKAEEEAEKLKEEIKKKLKEEGVPKNVTFKFERDIEITLTDENGNVIGTRKIKIKFTVPLPSA [r9_494_JUSTAS] | 2.14 ± 0.29 | 1.79 ± 0.13 | 1.85 ± 0.39 |
| SAGGSAGGSAGMYRVEIEIEMSKEQLEALKKNKNLKPGQKIDLKVKIKIEPVKLDKNGKLSAGGSAGGSAGG [r17_194_TrROS_Hall] | 1.57 ± 0.051 | 2.43 ± 0.036 | 2.32 ± 0.13 |
| SAGGKEFIEKLGNNATIEIDTPNGGKVKINLKIEKVKPGKYVIKGEVTVYNPNTNKPVKFPYTLTIESAGGS [r8_473_TrMRF] | 2.39 ± 0.2 | 3.75 ± 0.076 | 3.13 ± 0.18 |
| SAGGSKTIVIDPEKVVKVEVKKNENGEKEIRIVVKNKDGEEKEVTIKPGEKLELPPKVEVVVLPEKSAGGSA [r2_347_TrROS_Hall] | -0.517 ± 0.28 | 1.39 ± 0.18 | 0.965 ± 0.19 |
| SAGGNIKIEDIEIMKPMKDPDGNPDKPMYMVSIRIEHEYKYPDGPMKHKHEIMIMMPPNDPDEALDELSAGG [r13_149_TrROS] | 0.897 ± 0.081 | 0.758 ± 0.041 | 0.877 ± 0.11 |
| SAGMPKPIRLLVRNPETGKYFLVEVEEPEELVTVTLLDPETGEVRAVFEGPLEEIIAALEAEGFEVEPVSAG [r5_291_TrMRF] | 4.47 ± 0.16 | 4.438 ± 0.042 | 4.442 ± 0.036 |
| SAGSAYRIEVYNPETGKKVEIFVFPNGEALVKEEDGFSKIYIDPSKPEQVEAIAKEIEPLGVEVKISPWSAG [r5_791_TrMRF] | 1.4 ± 0.1 | 1.29 ± 0.29 | 1.35 ± 0.34 |

| Sequence | folding stability dG unfold [1] [kcal/mol] | folding stability dG unfold [2] [kcal/mol] | folding stability dG unfold [3] [kcal/mol] |
| --- | --- | --- | --- |
| SAGGSAGGSAKTLTLTTPNGDKVEVKLYELPDDFVLAEIKVLATGEKFYALLTKDGTVYLASAGGSAGGSAG [r3_15_TrMRF] | 2.47 ± 0.084 | 3.49 ± 0.15 | 3.06 ± 0.13 |
| SAGGKKIIIVIGSPEEVERLKELFPDEEVITLPREALENPEVLKELIKELEEKGIEVEIIIPPGVKPSAGGS [r8_376_TrROS_Hall] | 3.82 ± 0.37 | 1.94 ± 0.26 | 3.73 ± 0.44 |
| SAGGGASLNSIKISKIPGLNKYKITLPTSAAPGTEVTITINNPKGKETLTFTLPVKPLPGNTVVLLLSAGGS [r8_195_JUSTAS] | 1.46 ± 0.045 | 1.74 ± 0.059 | 1.74 ± 0.066 |
| SAGGSAGGSAGGSEELLKKNPNYIIVKKVEKVLEAKTPSGKKYTIKTTIYIITKPNELPSAGGSAGGSAGGS [r10_0_JUSTAS] | 1.52 ± 0.099 | 2.13 ± 0.14 | 1.84 ± 0.21 |
| SAGGSAGGPVWKIRFPDDGKPYEFHINPNHGMIEVEDPKDGEPKGTVPMPINQLLEKGMEVEPVSAGGSAGG [r6_832_TrROS] | -0.769 ± 0.28 | -0.45 ± 0.26 | -0.551 ± 0.21 |
| SAGGSAGGSAGGKEYKVVEFEVLLEDPEPVKAVALIDPDGPVRVFLGDKVYTFKRDELGSAGGSAGGSAGGS [r10_649_TrMRF] | -0.081 ± 0.071 | 1.13 ± 0.13 | 0.766 ± 0.073 |
| SAGGSAGGSMKIVIVVDEDGSVRVRIEETGEEITFPKGMTAEEIAELLKKKFPNLEVEIVEVPSAGGSAGGS [r12_423_TrROS_Hall] | 4.28 ± 0.19 | 3.09 ± 0.12 | 3.76 ± 0.24 |
| SAGGSAGGGRLLIDRAFDSLEDIEEFLRELETPALVHLPDGTELFYERGDGFTEIHVIPPGELGSAGGSAGG [r6_641_TrMRF] | 0.277 ± 0.072 | 1.26 ± 0.053 | 1 ± 0.099 |
| SASEDGYVVVEITIPIEIYMPMYKYSPDGKWKWEPHQMEIKLEITVQVKKDPEAADRAREFADRILDYISAG [r14_830_TrROS] | 2.7 ± 0.13 | 3.59 ± 0.21 | 3.22 ± 0.23 |
| SAGGEDGKWREQTFTIENPEDGKKAKIEIEYNPENGYASIEFPGNGKKIDVPFKSLEDILDAIKKIGISAGG [r13_439_TrROS] | -0.02 ± 0.074 | 0.0872 ± 0.16 | 0.0961 ± 0.12 |
| SVPIALPGVPPGFSLEEVAALITEKIKALGYTLKDIKVTPHPDNTVTITITVEKGEKTVKKVTTEINPPVSA [r9_953_JUSTAS] | 1.56 ± 0.15 | 2.95 ± 0.097 | 2.56 ± 0.36 |
| SPPNFRMEQEEIEIEIRFPDGWRVSVEIEIHRMRFPDGDEMLHIDIKVEADPNNPGMRKLAKNLVEEIINSA [r9_908_TrROS] | 1.24 ± 0.21 | 2.14 ± 0.21 | 1.85 ± 0.41 |
| SAGGSAGGGDAESYAKEKGFVEIKVTKLPDGSERVTAKYPDGTTADILYTPGQGTFTLLETKKESAGGSAGG [r6_906_JUSTAS] | 0.154 ± 0.034 | 0.407 ± 0.082 | 0.332 ± 0.078 |
| SAGGSANPKPKIEIDKIYRMPDGQVHIPIEMERYDDDGQKETYPMDVTFNVPEGKPLTPNAIKDLISAGGSA [r15_836_TrROS] | -0.645 ± 0.064 | -0.924 ± 0.24 | -0.693 ± 0.15 |
| SAGGSAGGGSLTPLSEDETTITLRLSPSLDEVLKELGLTVTGVEEEGETVTVTVKVSPEVKEKLSAGGSAGG [r6_109_JUSTAS] | 0.13 ± 0.062 | -0.183 ± 0.2 | 0.00369 ± 0.19 |
